Measurements from US20040176301A1 (CYCLACEL, published 2004).
Where two headings read alike, the source gives them in different places. Each block holds one binder with its values, some of them ahead of it. Square brackets hold non-standard residues; d marks the D form. Ends that are not written are not given here. Phe(3-F) = N[C@@H](Cc1cccc(F)c1)C(=O)O; Phe(4-F) = N[C@@H](Cc1ccc(F)cc1)C(=O)O; 1Nal = N[C@@H](Cc1cccc2ccccc12)C(=O)O; 2Nal = N[C@@H](Cc1ccc2ccccc2c1)C(=O)O; hPhe = N[C@@H](CCc1ccccc1)C(=O)O; Tic = O=C(O)[C@@H]1Cc2ccccc2CN1; Cha = N[C@@H](CC1CCCCC1)C(=O)O; Abu = CC[C@H](N)C(=O)O

Legend:
Experiment in all cases: cell-based or functional assay
CDK2/Cyclin E complex [1] = target: T1, CDK2/Cyclin E complex (UniProt P24941 1-298; P24864 1-410)
CDK4/Cyclin D1 complex [2] = target: T2, CDK4/Cyclin D1 complex (UniProt P11802 1-303; P24385 1-295)
CDK2/Cyclin E complex [3] = target: T1, CDK2/Cyclin E complex; remark: listed apart in the source
CDK4/Cyclin D1 complex [4] = target: T2, CDK4/Cyclin D1 complex; remark: listed apart in the source
CDK2/cyclin A [5] = target: T3, CDK2/cyclin A (UniProt P24941 1-298; P20248 1-432)
CDK2/cyclin A [6] = target: T3, CDK2/cyclin A; remark: listed apart in the source

T2 sequence (P11802 other isoform, or with tags, fused parts or gaps, chain 1 of 2): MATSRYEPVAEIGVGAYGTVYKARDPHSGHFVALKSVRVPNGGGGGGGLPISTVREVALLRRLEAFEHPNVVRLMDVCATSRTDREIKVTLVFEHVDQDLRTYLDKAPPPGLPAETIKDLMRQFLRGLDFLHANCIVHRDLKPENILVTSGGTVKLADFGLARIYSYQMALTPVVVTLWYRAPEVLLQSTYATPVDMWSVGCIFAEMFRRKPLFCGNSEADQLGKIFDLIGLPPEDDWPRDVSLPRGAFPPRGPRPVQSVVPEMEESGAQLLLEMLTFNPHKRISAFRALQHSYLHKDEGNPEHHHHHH
T2 sequence (P24385 whole entry, chain 2 of 2): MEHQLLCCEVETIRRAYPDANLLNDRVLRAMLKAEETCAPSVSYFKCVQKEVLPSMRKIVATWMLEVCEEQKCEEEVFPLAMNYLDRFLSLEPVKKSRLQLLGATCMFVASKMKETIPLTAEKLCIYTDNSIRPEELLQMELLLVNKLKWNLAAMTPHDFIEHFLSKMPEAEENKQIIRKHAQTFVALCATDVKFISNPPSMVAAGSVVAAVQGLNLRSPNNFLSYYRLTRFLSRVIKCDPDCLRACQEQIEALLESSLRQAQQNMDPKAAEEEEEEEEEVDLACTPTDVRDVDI

% Inhibition, cyclin E/CDK2 kinase (CDK2/Cyclin E complex [1]): 40% | % Inhibition, cyclin D1/CDK4 kinase (CDK4/Cyclin D1 complex [2]): 10%
B1: DFYHSKRR-NH2 (peptide)
peptide: DFYHSKRR-NH2

% Inhibition, cyclin E/CDK2 kinase (CDK2/Cyclin E complex [3]): 78% | % Inhibition, cyclin D1/CDK4 kinase (CDK4/Cyclin D1 complex [4]): 83% | IC50, cyclin D1/CDK4 kinase (CDK4/Cyclin D1 complex [4]): 13 µM
B2: P21 N-terminus-LIF hybrid KAURRLIF-NH2 (peptide)
peptide: KAXRRLIF
modifications: U at position 3 (read as Abu); C-terminal carboxamide

% Inhibition, cyclin E/CDK2 kinase (CDK2/Cyclin E complex [3]): 82% | IC50, cyclin E/CDK2 kinase (CDK2/Cyclin E complex [3]): 0.9 µM
B3: P21 C-terminus (S153A) LFG HAKRRLFG-NH2 (peptide)
peptide: HAKRRLFG-NH2

% Inhibition, cyclin E/CDK2 kinase (CDK2/Cyclin E complex [3]): 82% | IC50, cyclin E/CDK2 kinase (CDK2/Cyclin E complex [3]): 1.6 µM | % Inhibition, cyclin D1/CDK4 kinase (CDK4/Cyclin D1 complex [4]): 42%
B4: P21 C-terminius-LFG hybrid HSKRRLFG-NH2 (peptide)
peptide: HSKRRLFG-NH2

% Inhibition, cyclin E/CDK2 kinase (CDK2/Cyclin E complex [1]): 80% | IC50, cyclin E/CDK2 kinase, GST-pRb (CDK2/Cyclin E complex [1]): 6.8 µM | % Inhibition, cyclin D1/CDK4 kinase (CDK4/Cyclin D1 complex [2]): 70% | IC50, cyclin D1/CDK4 kinase, GST-pRb (CDK4/Cyclin D1 complex [2]): 22 µM
B5: FYHSKRRLIFS-NH2 (peptide)
peptide: FYHSKRRLIFS-NH2

% Inhibition, cyclin E/CDK2 kinase (CDK2/Cyclin E complex [1]): 80% | IC50, cyclin E/CDK2 kinase, GST-pRb (CDK2/Cyclin E complex [1]): 7.3 µM | % Inhibition, cyclin D1/CDK4 kinase (CDK4/Cyclin D1 complex [2]): 70% | IC50, cyclin D1/CDK4 kinase, GST-pRb (CDK4/Cyclin D1 complex [2]): 20 µM
B6: YHSKRRLIFS-NH2 (peptide)
peptide: YHSKRRLIFS-NH2

Relative activity, Kinase Inhibition (CDK2/cyclin A kinase assay, pRb substrate, [ATP] = 100 µM) (CDK2/cyclin A [5]): 1.2 relative to H-His-Ala-Lys-Arg-Arg-Leu-Ile-Phe-NH2 (=1)
B7: H-His-Ala-Lys-Arg-Arg-Leu-Ile-2Nap-NH2 (peptide)
peptide: H-HAKRRLI[2Nal]-NH2
SMILES: CC[C@H](C)[C@H](NC(=O)[C@H](CC(C)C)NC(=O)[C@H](CCCNC(=N)N)NC(=O)[C@H](CCCNC(=N)N)NC(=O)[C@H](CCCCN)NC(=O)[C@H](C)NC(=O)[C@@H](N)Cc1c[nH]cn1)C(=O)N[C@@H](Cc1ccc2ccccc2c1)C(N)=O

% Inhibition, cyclin E/CDK2 kinase (CDK2/Cyclin E complex [1]): 70% | IC50, cyclin E/CDK2 kinase, GST-pRb (CDK2/Cyclin E complex [1]): 5.4 µM | % Inhibition, cyclin D1/CDK4 kinase (CDK4/Cyclin D1 complex [2]): 60% | IC50, cyclin D1/CDK4 kinase, GST-pRb (CDK4/Cyclin D1 complex [2]): 40 µM
B8: DFYHSKRRLIFA-NH2 (peptide)
peptide: DFYHSKRRLIFA-NH2

% Inhibition, cyclin E/CDK2 kinase (CDK2/Cyclin E complex [1]): 50% | IC50, cyclin E/CDK2 kinase, GST-pRb (CDK2/Cyclin E complex [1]): 200 µM | % Inhibition, cyclin D1/CDK4 kinase (CDK4/Cyclin D1 complex [2]): 10%
B9: DFYHSKRRL-NH2 (peptide)
peptide: DFYHSKRRL-NH2

% Inhibition, cyclin E/CDK2 kinase (CDK2/Cyclin E complex [1]): 45% | IC50, cyclin E/CDK2 kinase, GST-pRb (CDK2/Cyclin E complex [1]): 200 µM | % Inhibition, cyclin D1/CDK4 kinase (CDK4/Cyclin D1 complex [2]): 10%
B10: DFYHSK-NH2 (peptide)
peptide: DFYHSK-NH2

Relative activity, Kinase Inhibition (CDK2/cyclin A kinase assay, pRb substrate, [ATP] = 100 µM) (CDK2/cyclin A [5]): 1 relative to H-His-Ala-Lys-Arg-Arg-Leu-Ile-Phe-NH2 (=1)
B11: H-His-Ala-Lys-Arg-Arg-Leu-Ile-pFPhe-NH2 (peptide)
peptide: H-HAKRRLI[Phe(4-F)]-NH2
SMILES: CC[C@H](C)[C@H](NC(=O)[C@H](CC(C)C)NC(=O)[C@H](CCCNC(=N)N)NC(=O)[C@H](CCCNC(=N)N)NC(=O)[C@H](CCCCN)NC(=O)[C@H](C)NC(=O)[C@@H](N)Cc1c[nH]cn1)C(=O)N[C@@H](Cc1ccc(F)cc1)C(N)=O

% Inhibition, cyclin E/CDK2 kinase (CDK2/Cyclin E complex [1]): 35% | % Inhibition, cyclin D1/CDK4 kinase (CDK4/Cyclin D1 complex [2]): 20%
B12: DFYHSKRRLI-NH2 (peptide)
peptide: DFYHSKRRLI-NH2

Relative activity, Kinase Inhibition (CDK2/cyclin A kinase assay, pRb substrate, [ATP] = 100 µM) (CDK2/cyclin A [5]): 0.3 relative to H-His-Ala-Lys-Arg-Arg-Leu-Ile-Phe-NH2 (=1)
B13: H-His-Ala-Lys-Arg-Arg-Leu-Ile-Tic-NH2 (peptide)
peptide: H-HAKRRLI[Tic]-NH2
SMILES: CC[C@H](C)[C@H](NC(=O)[C@H](CC(C)C)NC(=O)[C@H](CCCNC(=N)N)NC(=O)[C@H](CCCNC(=N)N)NC(=O)[C@H](CCCCN)NC(=O)[C@H](C)NC(=O)[C@@H](N)Cc1c[nH]cn1)C(=O)N1Cc2ccccc2C[C@H]1C(N)=O

Relative activity, Kinase Inhibition (CDK2/cyclin A kinase assay, pRb substrate, [ATP] = 100 µM) (CDK2/cyclin A [5]): < 0.1 relative to H-His-Ala-Lys-Arg-Arg-Leu-Ile-Phe-NH2 (=1)
B14: H-His-Ala-Lys-Arg-Arg-Leu-Ile-Lys-NH2 (peptide)
peptide: H-HAKRRLIK-NH2

Relative activity, Kinase Inhibition (CDK2/cyclin A kinase assay, pRb substrate, [ATP] = 100 µM) (CDK2/cyclin A [5]): 0.2 relative to H-His-Ala-Lys-Arg-Arg-Leu-Ile-Phe-NH2 (=1)
B15: H-His-Ala-Lys-Arg-Arg-Leu-Ile-1Nap-NH2 (peptide)
peptide: H-HAKRRLI[1Nal]-NH2
SMILES: CC[C@H](C)[C@H](NC(=O)[C@H](CC(C)C)NC(=O)[C@H](CCCNC(=N)N)NC(=O)[C@H](CCCNC(=N)N)NC(=O)[C@H](CCCCN)NC(=O)[C@H](C)NC(=O)[C@@H](N)Cc1c[nH]cn1)C(=O)N[C@@H](Cc1cccc2ccccc12)C(N)=O

Relative activity, Kinase Inhibition (CDK2/cyclin A kinase assay, pRb substrate, [ATP] = 100 µM) (CDK2/cyclin A [5]): 0.3 relative to H-His-Ala-Lys-Arg-Arg-Leu-Ile-Phe-NH2 (=1)
B16: H-His-Ala-Lys-Arg-Arg-Leu-Ile-Leu-NH2 (peptide)
peptide: H-HAKRRLIL-NH2

Relative activity, Kinase Inhibition (CDK2/cyclin A kinase assay, pRb substrate, [ATP] = 100 µM) (CDK2/cyclin A [5]): 0.8 relative to H-His-Ala-Lys-Arg-Arg-Leu-Ile-Phe-NH2 (=1)
B17: H-His-Ala-Lys-Arg-Arg-Leu-Ile-mFPhe-NH2 (peptide)
peptide: H-HAKRRLI[Phe(3-F)]-NH2
SMILES: CC[C@H](C)[C@H](NC(=O)[C@H](CC(C)C)NC(=O)[C@H](CCCNC(=N)N)NC(=O)[C@H](CCCNC(=N)N)NC(=O)[C@H](CCCCN)NC(=O)[C@H](C)NC(=O)[C@@H](N)Cc1c[nH]cn1)C(=O)N[C@@H](Cc1cccc(F)c1)C(N)=O

% Inhibition, cyclin E/CDK2 kinase (CDK2/Cyclin E complex [1]): 20% | % Inhibition, cyclin D1/CDK4 kinase (CDK4/Cyclin D1 complex [2]): 35%
B18: DFYHSKRRLIAS-NH2 (peptide)
peptide: DFYHSKRRLIAS-NH2

Relative activity, Kinase Inhibition (CDK2/cyclin A kinase assay, pRb substrate, [ATP] = 100 µM) (CDK2/cyclin A [5]): 0.3 relative to H-His-Ala-Lys-Arg-Arg-Leu-Ile-Phe-NH2 (=1)
B19: H-His-Ala-Lys-Arg-Arg-Leu-Ile-Tyr-NH2 (peptide)
peptide: H-HAKRRLIY-NH2

% Inhibition, cyclin E/CDK2 kinase (CDK2/Cyclin E complex [3]): 86% | IC50, cyclin E/CDK2 kinase (CDK2/Cyclin E complex [3]): 0.074 µM | % Inhibition, cyclin D1/CDK4 kinase (CDK4/Cyclin D1 complex [4]): 66% | IC50, cyclin D1/CDK4 kinase (CDK4/Cyclin D1 complex [4]): 42 µM
B20: P21 N-terminus peptide KAURRLFG-NH2 (peptide)
peptide: KA[Abu]RRLFG-NH2

% Inhibition, cyclin E/CDK2 kinase (CDK2/Cyclin E complex [3]): 80% | IC50, cyclin E/CDK2 kinase (CDK2/Cyclin E complex [3]): 3.4 µM | % Inhibition, cyclin D1/CDK4 kinase (CDK4/Cyclin D1 complex [4]): 72% | % Inhibition, cyclin E/CDK2 kinase (CDK2/Cyclin E complex [1]): 80% | IC50, cyclin E/CDK2 kinase, GST-pRb (CDK2/Cyclin E complex [1]): 3.4 µM | % Inhibition, cyclin D1/CDK4 kinase (CDK4/Cyclin D1 complex [2]): 72%
B21: p21 (152-159) HSKRRLIF-NH2 (peptide)
peptide: HSKRRLIF-NH2

Relative activity, Kinase Inhibition (CDK2/cyclin A kinase assay, pRb substrate, [ATP] = 100 µM) (CDK2/cyclin A [5]): < 0.1 relative to H-His-Ala-Lys-Arg-Arg-Leu-Ile-Phe-NH2 (=1)
B22: H-His-Ala-Lys-Arg-Arg-Leu-Ile-Hof-NH2 (peptide)
peptide: H-HAKRRLI[hPhe]-NH2
SMILES: CC[C@H](C)[C@H](NC(=O)[C@H](CC(C)C)NC(=O)[C@H](CCCNC(=N)N)NC(=O)[C@H](CCCNC(=N)N)NC(=O)[C@H](CCCCN)NC(=O)[C@H](C)NC(=O)[C@@H](N)Cc1c[nH]cn1)C(=O)N[C@@H](CCc1ccccc1)C(N)=O

Relative activity, Kinase Inhibition (CDK2/cyclin A kinase assay, pRb substrate, [ATP] = 100 µM) (CDK2/cyclin A [5]): 0.3 relative to H-His-Ala-Lys-Arg-Arg-Leu-Ile-Phe-NH2 (=1)
B23: H-His-Ala-Lys-Arg-Arg-Leu-Ile-Trp-NH2 (peptide)
peptide: H-HAKRRLIW-NH2

Relative activity, Kinase Inhibition (CDK2/cyclin A kinase assay, pRb substrate, [ATP] = 100 µM) (CDK2/cyclin A [5]): < 0.1 relative to H-His-Ala-Lys-Arg-Arg-Leu-Ile-Phe-NH2 (=1)
B24: H-His-Ala-Lys-Arg-Arg-Leu-Ile-Cha-NH2 (peptide)
peptide: H-HAKRRLI[Cha]-NH2
SMILES: CC[C@H](C)[C@H](NC(=O)[C@H](CC(C)C)NC(=O)[C@H](CCCNC(=N)N)NC(=O)[C@H](CCCNC(=N)N)NC(=O)[C@H](CCCCN)NC(=O)[C@H](C)NC(=O)[C@@H](N)Cc1c[nH]cn1)C(=O)N[C@@H](CC1CCCCC1)C(N)=O

Relative activity, Kinase Inhibition (CDK2/cyclin A kinase assay, pRb substrate, [ATP] = 100 µM) (CDK2/cyclin A [6]): 0.3 relative to H-His-Ala-Lys-Arg-Arg-Leu-Ile-Phe-NH2 (=1)
B25: H-His-Ala-Lys-Arg-Arg-Leu-Ala-Phe-NH2 (peptide)
peptide: H-HAKRRLAF-NH2

% Inhibition, cyclin E/CDK2 kinase (CDK2/Cyclin E complex [1]): 80% | IC50, cyclin E/CDK2 kinase, GST-pRb (CDK2/Cyclin E complex [1]): 3.4 µM | % Inhibition, cyclin D1/CDK4 kinase (CDK4/Cyclin D1 complex [2]): 65% | IC50, cyclin D1/CDK4 kinase, GST-pRb (CDK4/Cyclin D1 complex [2]): 32 µM
B26: HSKRRLIFS-NH2 (peptide)
peptide: HSKRRLIFS-NH2
